Test results from patent US20250084172A1 (23ANDME, published 2025).
Changes are numbered by the printed parent chain. Names and notes keep the numbering of the source. Values belong to the binder of their own block, whether it stands above or below them.

Legend:
[1] = target: T1, human soluble ULBP6 haplotype 01 (hULBP6_01) (human, UniProt Q5VY80 27-218, limits assumed); assay: blocking ELISA; hNKG2D coated, antibody titrated with biotinylated hULBP6_01
T1 construct: also called sULBP6_01
T1 chain: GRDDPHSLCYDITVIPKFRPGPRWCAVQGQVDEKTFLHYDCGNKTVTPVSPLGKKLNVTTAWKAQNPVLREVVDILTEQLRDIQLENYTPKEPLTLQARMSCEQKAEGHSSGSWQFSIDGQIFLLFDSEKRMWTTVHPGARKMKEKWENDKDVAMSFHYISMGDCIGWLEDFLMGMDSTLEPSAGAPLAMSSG

[2] = target: T2, cynomolgus soluble ULBP2/6 (cULBP2/6) (cynomolgus, UniProt Q5VY80 28-217 (human entry), limits assumed); assay: SPR (BIACORE);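 also: soluble human and cynomolgus NKG2D ligands injected as analytes in 3-fold dilution series spanning 0.01 to 50 nM at 37 °C, reference-subtracted sensorgrams fitted to a 1:1 Langmuir model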
T2 construct: also called cyno ULBP6; Cyno-cULBP2/6
T2 chain: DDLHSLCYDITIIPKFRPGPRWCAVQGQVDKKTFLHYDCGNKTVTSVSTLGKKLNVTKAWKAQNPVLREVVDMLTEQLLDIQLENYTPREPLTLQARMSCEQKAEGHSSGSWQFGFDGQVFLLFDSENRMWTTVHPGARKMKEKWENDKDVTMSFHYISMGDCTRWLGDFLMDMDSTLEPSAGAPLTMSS

[3] = target: T3, human soluble ULBP5 (hULBP5) (human, UniProt Q6H3X3 26-218); assay: SPR (BIACORE);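 also: soluble human and cynomolgus NKG2D ligands injected as analytes in 3-fold dilution series spanning 0.01 to 50 nM at 37 °C, reference-subtracted sensorgrams fitted to a 1:1 Langmuir model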
T3 construct: also called sULBP5
T3 sequence: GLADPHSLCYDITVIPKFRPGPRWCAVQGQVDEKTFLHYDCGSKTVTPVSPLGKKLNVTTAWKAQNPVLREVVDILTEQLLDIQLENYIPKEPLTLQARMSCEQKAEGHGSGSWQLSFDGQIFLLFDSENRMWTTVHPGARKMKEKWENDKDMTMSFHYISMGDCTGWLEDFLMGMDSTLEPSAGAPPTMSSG

[4] = target: T4, cynomolgus soluble ULBP5 (cULBP5) (cynomolgus); assay: SPR (BIACORE);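 also: soluble human and cynomolgus NKG2D ligands injected as analytes in 3-fold dilution series spanning 0.01 to 50 nM at 37 °C, reference-subtracted sensorgrams fitted to a 1:1 Langmuir model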
T4 construct: also called Cyno-cULBP5
T4 chain: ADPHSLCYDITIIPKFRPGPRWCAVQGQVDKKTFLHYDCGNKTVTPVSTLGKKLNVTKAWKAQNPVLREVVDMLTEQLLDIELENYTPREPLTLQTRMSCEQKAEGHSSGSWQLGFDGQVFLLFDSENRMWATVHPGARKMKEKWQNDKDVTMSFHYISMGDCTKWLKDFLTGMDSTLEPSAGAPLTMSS

[5] = target: T5, human soluble ULBP6 haplotype 02 (hULBP6_02) (human, UniProt Q5VY80 26-218); assay: SPR (BIACORE);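 also: soluble human and cynomolgus NKG2D ligands injected as analytes in 3-fold dilution series spanning 0.01 to 50 nM at 37 °C, reference-subtracted sensorgrams fitted to a 1:1 Langmuir model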
T5 construct: also called sULBP6_02
T5 chain: T1 chain with G1R, R81L, I122T

[6] = target: T6, human soluble ULBP2 (hULBP2) (human, UniProt Q9BZM5 26-216); assay: SPR (BIACORE)
T6 construct: also called sULBP2
T6 sequence: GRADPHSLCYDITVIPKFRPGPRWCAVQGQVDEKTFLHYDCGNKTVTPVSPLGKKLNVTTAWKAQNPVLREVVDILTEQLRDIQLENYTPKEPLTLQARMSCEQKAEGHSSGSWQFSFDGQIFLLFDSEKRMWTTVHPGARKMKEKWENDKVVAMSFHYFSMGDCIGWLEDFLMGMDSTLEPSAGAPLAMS

[7] = target: T1, human soluble ULBP6 haplotype 01 …; assay: SPR (BIACORE)
[8] = target: T5, human soluble ULBP6 haplotype 02 …; assay: blocking ELISA; hNKG2D coated, antibody titrated with biotinylated hULBP6_02
[9] = target: hNKG2D-Fc (human NKG2D 78-216 with C-terminal long huFc-Flag tag) (human); assay: SPR (BIACORE 8K, 37 C); hNKG2D-Fc captured on Protein A, soluble ligand injected
hNKG2D-Fc (human NKG2D 78-216 with C-terminal long huFc-Flag tag) (human), sequence (chain, as listed by the source limits assumed): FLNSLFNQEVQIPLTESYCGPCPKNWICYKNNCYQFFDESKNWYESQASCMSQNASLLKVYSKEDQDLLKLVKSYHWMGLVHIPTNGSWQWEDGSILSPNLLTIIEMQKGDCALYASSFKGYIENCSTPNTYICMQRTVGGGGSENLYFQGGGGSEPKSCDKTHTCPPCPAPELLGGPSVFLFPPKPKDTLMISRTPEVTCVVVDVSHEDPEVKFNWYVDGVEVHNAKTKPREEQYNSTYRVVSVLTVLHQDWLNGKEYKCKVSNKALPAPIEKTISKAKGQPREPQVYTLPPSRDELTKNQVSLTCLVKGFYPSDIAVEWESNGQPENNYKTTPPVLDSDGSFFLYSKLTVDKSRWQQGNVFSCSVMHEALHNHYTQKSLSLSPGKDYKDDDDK

[10] = target: T7, cell surface ULBP6_01 on COV644 cells (human, UniProt Q5VY80 27-218); assay: flow cytometry; blocking of hNKG2D-mFc binding to COV644 cells, average of 2 replicates
T7 construct: whole, on cells; also called cell surface ULBP6 (COV644)
T7 chain: T1 chain

[11] = target: T8, cell surface ULBP6_02 on PANC02.13 cells (human, UniProt Q5VY80 26-218); assay: flow cytometry on PANC02.13 cells, anti-hFc-APC detection, average of 2 replicates
T8 construct: whole, on cells; also called cell surface ULBP6 (PANC02.13)
T8 chain: T1 chain with G1R, R81L, I122T

[12] = target: T7, cell surface ULBP6_01 on COV644 cells; assay: flow cytometry on COV644 cells, anti-hFc-APC detection, average of 2 replicates
[13] = target: T2, cynomolgus soluble ULBP2/6 (cULBP2/6); assay: SPR (BIACORE 8K, 37 C); antibody captured on Protein A, soluble ULBP injected;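 also: ligand injected as threefold dilution series in HBS-P (highest 10 or 50 nM), reference-cell and buffer-subtracted sensorgrams fitted with a 1:1 Langmuir model for on and off rates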
[14] = target: T4, cynomolgus soluble ULBP5 (cULBP5); assay: as above
[15] = target: T5, human soluble ULBP6 haplotype 02 …; assay: as above
[16] = target: T6, human soluble ULBP2 (hULBP2); assay: as above
[17] = target: T1, human soluble ULBP6 haplotype 01 …; assay: as above
[18] = target: T9, human ULBP6 displayed on M13 phage (ULBP6-HA-pIII) (human, UniProt Q5VY80 26-218); assay: phage ELISA: plate coated with the antibody, ULBP6 phage titrated in 3-fold steps from 1.0 O.D./mL, HRP anti-M13 detection, O.D. 450
T9 construct: also called ULBP6 phage; not shown: M13 minor coat protein pIII
T9 sequence: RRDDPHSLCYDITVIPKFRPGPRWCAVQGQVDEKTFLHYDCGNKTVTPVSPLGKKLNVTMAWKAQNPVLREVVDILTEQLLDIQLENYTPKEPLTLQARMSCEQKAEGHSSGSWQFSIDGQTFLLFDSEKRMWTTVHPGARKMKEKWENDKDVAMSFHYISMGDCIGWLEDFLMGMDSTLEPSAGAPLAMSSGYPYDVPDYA

IC50 [1]: 10.2 nM
Kd [2]: 1.76 nM
Kd [3]: 8.7 nM
Kd [4]: 1.03 nM
Kd [5]: 0.68 nM
Kd [6]: 8.91 nM
Kd [7]: 4.38 nM
IC50 [8]: 0.103 nM
B1: Humanized 6E1 (h6E1) (E-) (antibody, human IgG1, kappa, N297G, V domains shown)
VH: EVQLVQSGAEVKKPGASVKVSCKASGYTFTNYWMHWMRQAPGQGLEWLGRIHPSDSDTNYNQKFKGRATLTVDKSISTAYMELSRLRSDDTAVYYCAIEGTGKGYFDVWGRGTLVTVSS
VL: DIQMTQSPSSLSASVGDRVTITCKASQDIYSYLSWFQQKPGKSPKTLIYRANRLVDGVPSRFSGSGSGQDFTLTISSLQPEDFATYYCLHYDEFPLTFGGGTKVEIKR
notes: hIgG1 with N297G (effector negative)

Kd [9]: 118 nM
B2: human soluble MICB (hMICB) (ligand)
chain: AEPHSLRYNLMVLSQDESVQSGFLAEGHLDGQPFLRYDRQKRRAKPQGQWAEDVLGAKTWDTETEDLTENGQDLRRTLTHIKDQKGGLHSLQEIRVCEIHEDSSTRGSRHFYYDGELFLSQNLETQESTVPQSSRAQTLAMNVTNFWKEDAMKTKTHYRAMQADCLQKLQRYLKSGVAIRRTVPPMVNVTCSEVSEGNITVTCRASSFYPRNITLTWRQDGVSLSHNTQQWGDVLPDGNGTYQTWVATRIRQGEEQRFTCYMEHSGNHGTHPVPSGKVLVLQSQRTD
notes: the printed Uniprot number (29983) looks wrong; also called sMICB

IC50 [10]: 0.22 nM
EC50 [11]: 0.72 nM
EC50 [12]: 1.4 nM
Kd [13]: 0.151 nM
koff [13]: 0.00133 s⁻¹
kon [13]: 8.84e+06 M⁻¹ s⁻¹
Kd [14]: 0.735 nM
koff [14]: 0.00105 s⁻¹
kon [14]: 1.43e+06 M⁻¹ s⁻¹
Kd [15]: 1.31 nM
koff [15]: 0.00215 s⁻¹
kon [15]: 1.64e+06 M⁻¹ s⁻¹
Kd [16]: 0.642 nM
koff [16]: 0.00148 s⁻¹
kon [16]: 2.31e+06 M⁻¹ s⁻¹
Kd [17]: 0.422 nM
koff [17]: 0.00114 s⁻¹
kon [17]: 2.69e+06 M⁻¹ s⁻¹
EC50 (read off the curve) [18]: ~0.006 O.D. (phage)
B3: humanized 1D4 (h1D4), Fc version not stated (antibody, V domains shown)
VH: EIQLVQSGSELKKPGASVKVSCKASGYTFTEYPIHWVRQAPGQGFEWMGMIYTDTGEPTHAEEFKGRFVFSLDTSVSTAYLQISSLKAEDTAVYFCVRWYDGSSYIMDYWGQGTTVTVSS
VL: DIQMTQSPSSLSASVGDRVTITCKASQDINSYLSWFQQKPGKSPKTLIYRANRLVDGVPSRFSGSGSGQDYTFTISSLQPEDIATYYCLQYDEFPLTFGGGTKVEIK
notes: Recombinant humanized antibody, hIgG1 backbone with kappa light chain; also called hiD4; hu1D4

IC50 [1]: 7.7 nM
Kd [2]: 0.99 nM
Kd [3]: 8.88 nM
Kd [4]: 0.63 nM
Kd [5]: 1.06 nM
Kd [6]: 0.47 nM
Kd [7]: 0.41 nM
IC50 [8]: 0.265 nM
B4: Humanized 1D4 (h1D4) (E-) (antibody, human IgG1, kappa, N297G, V domains shown)
VH: B3 VH
VL: B1 VL with Y30N, F71Y, L73F, F83I, H90Q
notes: as for B1

IC50 [10]: 0.2 nM
EC50 [11]: 0.44 nM
EC50 [12]: 0.36 nM
Kd [13]: 0.415 nM
koff [13]: 0.0115 s⁻¹
kon [13]: 2.77e+07 M⁻¹ s⁻¹
Kd [14]: 1.51 nM
koff [14]: 0.00922 s⁻¹
kon [14]: 6.1e+06 M⁻¹ s⁻¹
Kd [15]: 0.939 nM
koff [15]: 0.00664 s⁻¹
kon [15]: 7.07e+06 M⁻¹ s⁻¹
Kd [16]: 10.7 nM
koff [16]: 0.0386 s⁻¹
kon [16]: 3.62e+06 M⁻¹ s⁻¹
Kd [17]: 5.24 nM
koff [17]: 0.0246 s⁻¹
kon [17]: 4.7e+06 M⁻¹ s⁻¹
EC50 (read off the curve) [18]: ~0.006 O.D. (phage)
B5: humanized 6E1 (h6E1), Fc version not stated (antibody, V domains shown)
VH: B1 VH
VL: B3 VL with N30Y, Y71F, F73L, I83F, Q90H
notes: Recombinant humanized antibody, hIgG1 backbone with kappa light chain; also called hu6E1; PUR3993

IC50 [10]: 0.11 nM
EC50 [11]: 1.28 nM
EC50 [12]: 1.29 nM
Kd [13]: 11.4 nM
koff [13]: 0.0045 s⁻¹
kon [13]: 396000 M⁻¹ s⁻¹
Kd [14]: 23.9 nM
koff [14]: 0.00333 s⁻¹
kon [14]: 139000 M⁻¹ s⁻¹
Kd [15]: 0.383 nM
koff [15]: 0.000459 s⁻¹
kon [15]: 1.2e+06 M⁻¹ s⁻¹
Kd [16]: 0.662 nM
koff [16]: 0.000542 s⁻¹
kon [16]: 819000 M⁻¹ s⁻¹
Kd [17]: 0.331 nM
koff [17]: 0.000492 s⁻¹
kon [17]: 1.48e+06 M⁻¹ s⁻¹
EC50 (read off the curve) [18]: ~0.006 O.D. (phage)
B6: humanized 8E11 (h8E11), Fc version not stated (antibody, V domains shown)
VH: EVQLVESGGGLVQPGGSLRLSCAASGFTFRTYGMHWVRQAPGKGLEWVAYISSGSGTIDYADTVKGRFTISRDNAKNSLYLQMNSLRAEDTAVYYCTRQTGAMDYWGQGTLVTVSS
VL: EIVLTQSPATLSLSPGERATLSCSASSSVSYMNWYQQKPGQSPRLWIYGISNLASGVPARFSGSGSGTDFTLTISSLEPEDFAVYYCQQRSSHPLTFGGGTKVEIK
notes: Recombinant humanized antibody, hIgG1 backbone with kappa light chain; also called PUR3926
